The values that follow come from publication PMC9616769.

Ends that are not written are not given here. * marks the point of attachment. pNA = O=[N+]([O-])c1ccc(N*)cc1

The target in the test is NT-mini (catalytically competent fragment of human neurotrypsin, Gly497-Leu875) (human).

B1: β-peptide (6-mer, KGLVEK) with a C-terminal p-nitroaniline (peptide)
peptide: KGLVEK-pNA
modifications: also: termed β-peptide, meaning not given here
On to B1, for which the Km of cleavage of the pNa peptide by NT-mini (Michaelis-Menten; 1 µM enzyme, 37 °C, 5 mM CaCl2, GF buffer pH 8) came to 6.16 mM.

B2: β-(5 mer) peptide with a C-terminal p-nitroaniline (peptide)
peptide: GLVEK-pNA
modifications: also: termed β-peptide, meaning not given here
With B2, the Km of cleavage of the pNa peptide by NT-mini (Michaelis-Menten; 1 µM enzyme, 37 °C, 5 mM CaCl2, GF buffer pH 8) turned out to be 17.2 mM.
